For orientation: pKd means the negative decadic logarithm of the Kd, by convention in mol/L.

pKd: −log10 of the molar value.

Experimental findings from PMC10450177 are described below.

The series has as its system CasDinG WT (Pseudomonas aeruginosa strain 83 (extrachromosomal plasmid)). Kind of series: fluorescence anisotropy. The following applies: 100 mM Tris pH 8.0, 1 mM TCEP, 5 mM MgCl2, +/- 1 mM AMP-PNP, 10 nM FAM-ssDNA, CasDinG 0-2.5 uM, room temperature. (In general: In fluorescence polarisation assays a small probe gives low polarisation when free and higher when bound to something large.)

Sequence “TCGTCACCAGTACAAACTACAACGCCTGTAGCATTCCACA [40 nt ssDNA (oligo 7)]” had a pKd of 7.59. Further, the pKd (no nucleotide, 5 mM Mg2+) is 7.60.
